Key:
[1] = basal ECAR, Seahorse XF24; conditions: glycan lost; control: PKM2wt cells
[2] = IP of HN-PKM2, anti-acetyl-lysine blot, 25 mM glucose; conditions: glycan lost; control: PKM2wt
[3] = LDH-coupled pyruvate kinase assay, PEP titration, HeLa; conditions: glycan lost; control: PKM2wt
[4] = sucrose density gradient ultracentrifugation, anti-Flag blot; conditions: glycan lost; control: PKM2wt
[5] = residual medium glucose normalised to cell number; conditions: glycan lost; control: PKM2wt cells
[6] = exogenous PKM2 protein level in xenograft tumors; conditions: glycan lost; control: PKM2wt tumors
[7] = pyruvate kinase activity, HeLa lysate; conditions: glycan gained; control: vector and OGTcd

| Substance | other: glycolytic flux [1] | other: OGA-induced lysine acetylation [2] | enzymatic_activity [3] | oligomerisation [4] | other: cellular glucose consumption [5] | expression_or_secretion [6] | enzymatic_activity [7] |
| --- | --- | --- | --- | --- | --- | --- | --- |
| pyruvate kinase M2 (PKM2): S362A | decreases | no change | increases | increases | decreases | no change |  |
| pyruvate kinase M2 (PKM2): T365A | decreases |  | increases | increases | decreases | no change |  |
| pyruvate kinase M2 (PKM2): OGTwt overexpression |  |  |  |  |  |  | decreases |

Source: PMC7107572
